US20240343770A1 (SUNSHINE LAKE PHARMA, published 2024)

How the values were obtained:
human GFRAL (human) = human GFRAL (human) (UniProt Q6UXV0); assay: cell-based or functional assay
[1] = target: the molecule itself; assay: SEC of the purified Fc (self-association, aggregate state)
[2] = target: the molecule itself; assay: SEC of the purified Fc (self-association)

Sequence of human GFRAL (human) (Q6UXV0 19-394): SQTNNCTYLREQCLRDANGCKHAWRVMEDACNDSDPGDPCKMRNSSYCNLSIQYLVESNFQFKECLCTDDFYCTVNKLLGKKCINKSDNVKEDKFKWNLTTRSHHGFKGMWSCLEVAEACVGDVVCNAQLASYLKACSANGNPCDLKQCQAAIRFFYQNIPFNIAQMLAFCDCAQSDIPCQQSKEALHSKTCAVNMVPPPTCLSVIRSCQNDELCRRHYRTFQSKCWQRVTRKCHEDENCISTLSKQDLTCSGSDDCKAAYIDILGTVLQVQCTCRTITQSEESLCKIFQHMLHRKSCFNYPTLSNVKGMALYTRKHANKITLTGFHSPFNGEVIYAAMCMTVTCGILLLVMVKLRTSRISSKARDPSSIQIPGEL

Q: For “native GDF15 (from UniProt Q99988 197-308) (ligand)”, which Relative activity ratio (native GDF15 EC50 : construct EC50), phospho-ERK1/2 HTRF in HEK293T cells expressing human GFRAL and RET (human GFRAL (human)) is on record?
A: The Relative activity ratio (native GDF15 EC50 : construct EC50), phospho-ERK1/2 HTRF in HEK293T cells expressing human GFRAL and RET was 1.

B1: IgG4 Fc (AA, K439E) (other)
chain: EAAGGPSVFLFPPKPKDTLMISRTPEVTCVVVDVSQEDPEVQFNWYVDGVEVHNAKTKPREEQFNSTYRVVSVLTVLHQDWLNGKEYKCKVSNKGLPSSIEKTISKAKGQPREPQVYTLPPSQEEMTKNQVSLTCLVKGFYPSDIAVEWESNGQPENNYKTTPPVLDSDGSFFLYSRLTVDKSRWQEGNVFSCSVMHEALHNHYTQESLSLSLG
notes: One Fc polypeptide
Q: Does B1 bind [1]?
A: Result: binds

B2: IgG4 Fc (AA, K439D) (other)
chain: EAAGGPSVFLFPPKPKDTLMISRTPEVTCVVVDVSQEDPEVQFNWYVDGVEVHNAKTKPREEQFNSTYRVVSVLTVLHQDWLNGKEYKCKVSNKGLPSSIEKTISKAKGQPREPQVYTLPPSQEEMTKNQVSLTCLVKGFYPSDIAVEWESNGQPENNYKTTPPVLDSDGSFFLYSRLTVDKSRWQEGNVFSCSVMHEALHNHYTQDSLSLSLG
notes: One Fc polypeptide
Q: Does B2 bind [1]?
A: Result: binds

B3: IgG4 Fc (AA, F405Q/Y407E) (other)
chain: EAAGGPSVFLFPPKPKDTLMISRTPEVTCVVVDVSQEDPEVQFNWYVDGVEVHNAKTKPREEQFNSTYRVVSVLTVLHQDWLNGKEYKCKVSNKGLPSSIEKTISKAKGQPREPQVYTLPPSQEEMTKNQVSLTCLVKGFYPSDIAVEWESNGQPENNYKTTPPVLDSDGSFQLESRLTVDKSRWQEGNVFSCSVMHEALHNHYTQKSLSLSLG
notes: Control Fc; found as a monomer by SEC; also called monomeric Fc molecule
Q: Does B3 bind [2]?
A: Result: no binding
